Reference: patent US20180057604A1 (Genentech, published 2018)
Where a chain is given by its changes, count along the chain named.

B1: 6305 (antibody, V domains shown)
VH: QVQLVQSGAEVKKPGSSVKVSCKASGGTLSGYAISWVRQAPGQGLEWMGNIIPGFGTANYAQKSQGRVTITADESTSTAYMELSSLRSEDTAVYYCARSGGTRYGMLDVWGQGTMVTVSS
VL: EIVLTQSPATLSVSPGERATLSCRASQSVGSNLAWYQQKPGQAPRLLIYGASTRATGIPARFSGSGSGTEFTLTISSLQSEDFAVYYCQQSFVWPPRTFGGGTKVEIK
notes: anti-BACE1 IgG
B2: 6307 (antibody, V domains shown)
VH: QLQLQESGPGLVKPSETLSLTCTVSGGSISWSSYYWSWIRQPPGKGLEWIGSIYRSGRTYYNPSLKGRVTISVDTSKNQFSLKLSSVTAADTAVYYCARVGHGINYFDLWGRGTLVTVSS
VL: B1 VL with V13L, G30S, N32Y, G50D, T53N, E70D, Q79E, S80P, F92I
notes: anti-BACE1 IgG
B3: 6308 (antibody, V domains shown)
VH: B2 VH with G67S
VL: B1 VL with V13L, G30S, N32Y, G50D, T53K, E70D, Q79E, S80P, F92L
notes: anti-BACE1 IgG
B4: 6309 (antibody, V domains shown)
VH: B2 VH with G67S
VL: B1 VL with V13L, G30S, N32Y, G50D, T53N, E70D, Q79E, S80P, F92I, V93T
notes: anti-BACE1 IgG
B5: 6311 (antibody, V domains shown)
VH: B2 VH with G67S
VL: B1 VL with V13L, G30S, N32Y, G50D, T53N, E70D, Q79E, S80P, F92L, V93T
notes: anti-BACE1 IgG
B6: 6313 (antibody, V domains shown)
VH: B2 VH with W31R, S32G, S37G, S52M, R55Y, R58S, Y60W, G67S, I104V, N105S
VL: B1 VL with V13L, G30S, N32Y, G50D, T53N, E70D, Q79E, S80P, S91A, F92Y
notes: anti-BACE1 IgG
B7: 6314 (antibody, V domains shown)
VH: B2 VH with W31R, S32G, S37G, S52M, R55Y, R58S, Y60W, G67S, I104V, N105S
VL: B1 VL with V13L, G30S, N32Y, G50D, T53N, E70D, Q79E, S80P, F92I
notes: anti-BACE1 IgG
B8: 6315 (antibody, V domains shown)
VH: B2 VH with W31R, S32G, S37G, S52M, R55Y, R58S, Y60W, G67S, I104V, N105S
VL: B1 VL with V13L, G30S, N32Y, G50D, T53K, E70D, Q79E, S80P, F92L, T103A
notes: anti-BACE1 IgG

Columns and labels:
murine BACE1 ECD [1] = biological target: T1, murine BACE1 ECD; assay: Octet, pH 5.0
T1 construct: analyte of the Octet assay (200 nM) and enzyme of the first short substrate assay
T1 sequence (single chain, as listed by the source limits assumed): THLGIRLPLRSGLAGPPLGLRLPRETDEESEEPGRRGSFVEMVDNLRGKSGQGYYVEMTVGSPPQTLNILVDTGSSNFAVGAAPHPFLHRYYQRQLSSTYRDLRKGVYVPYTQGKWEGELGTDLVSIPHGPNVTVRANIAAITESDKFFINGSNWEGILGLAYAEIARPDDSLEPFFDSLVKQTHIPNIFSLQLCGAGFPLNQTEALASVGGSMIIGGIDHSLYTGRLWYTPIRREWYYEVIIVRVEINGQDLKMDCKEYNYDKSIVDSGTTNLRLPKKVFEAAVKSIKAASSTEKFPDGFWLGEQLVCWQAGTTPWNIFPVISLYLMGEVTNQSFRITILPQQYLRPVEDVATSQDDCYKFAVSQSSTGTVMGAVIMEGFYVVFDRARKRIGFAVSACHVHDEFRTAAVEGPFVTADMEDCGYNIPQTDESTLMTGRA
Method: (§1) Anti-BACE1 antibodies were loaded onto anti-human capture (AHC) sensors (tips) followed by 60 seconds baseline in assay buffer. […] Tips were transferred to assay buffer for 5 minutes, 30 minutes, or 120 minutes depending on the off-rate, for off-rate measurement. Assay buffer was either PBS+0.1% BSA, pH 7.5; or PBS+0.1% BSA, pH 5.0. Kinetics were analyzed using a 1:1 binding model.

human BACE1 ECD [2] = biological target: T2, human BACE1 ECD; assay: Octet, pH 5.0
T2 construct: analyte of the Octet assay (200 nM) and enzyme of the first short substrate assay; also called human BACE1 extracellular domain
T2 sequence (single chain, as listed by the source limits assumed): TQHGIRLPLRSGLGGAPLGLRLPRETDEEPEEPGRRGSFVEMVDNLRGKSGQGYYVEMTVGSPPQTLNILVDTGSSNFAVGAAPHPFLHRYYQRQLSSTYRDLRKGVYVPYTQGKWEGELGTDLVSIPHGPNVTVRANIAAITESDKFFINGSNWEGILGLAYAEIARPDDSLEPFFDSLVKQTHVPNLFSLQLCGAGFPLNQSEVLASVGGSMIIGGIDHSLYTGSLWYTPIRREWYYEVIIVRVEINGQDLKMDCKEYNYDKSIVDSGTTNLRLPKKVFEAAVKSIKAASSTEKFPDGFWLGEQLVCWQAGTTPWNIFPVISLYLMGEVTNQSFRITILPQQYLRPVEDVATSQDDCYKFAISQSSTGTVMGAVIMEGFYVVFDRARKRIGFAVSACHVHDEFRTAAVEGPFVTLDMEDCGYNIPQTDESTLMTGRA
Method: as §1

murine BACE1 ECD [3] = biological target: T1, murine BACE1 ECD; assay: Octet, pH 7.5
Method: as §1

human BACE1 ECD [4] = biological target: T2, human BACE1 ECD; assay: Octet, pH 7.5
Method: as §1

[5] = biological target: BACE1 in primary mouse cortical neurons (mouse, UniProt P56818 46-501); assay: cell-based or functional assay
Chain of BACE1 in primary mouse cortical neurons (P56818 46-501): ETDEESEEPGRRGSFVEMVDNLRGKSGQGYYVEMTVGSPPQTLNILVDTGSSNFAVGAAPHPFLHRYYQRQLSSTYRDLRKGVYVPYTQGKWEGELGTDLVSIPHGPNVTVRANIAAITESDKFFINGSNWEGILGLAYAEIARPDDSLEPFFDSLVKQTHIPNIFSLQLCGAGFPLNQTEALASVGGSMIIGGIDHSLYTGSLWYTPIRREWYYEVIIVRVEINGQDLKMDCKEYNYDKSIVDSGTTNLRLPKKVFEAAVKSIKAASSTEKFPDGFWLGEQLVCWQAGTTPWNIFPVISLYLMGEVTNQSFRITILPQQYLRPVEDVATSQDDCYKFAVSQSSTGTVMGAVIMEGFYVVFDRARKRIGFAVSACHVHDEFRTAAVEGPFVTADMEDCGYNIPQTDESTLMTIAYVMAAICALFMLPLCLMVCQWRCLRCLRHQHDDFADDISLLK

| Binder | Kd (murine BACE1 ECD [1]) | Kd (human BACE1 ECD [2]) | Kd (murine BACE1 ECD [3]) | Kd (human BACE1 ECD [4]) | IC50, Abeta x-40 in mouse cortical neurons [5] | maximal % inhibition of Abeta x-40 [5] |
| --- | --- | --- | --- | --- | --- | --- |
| B1 | 1.6 nM | 0.96 nM | 0.56 nM | 0.53 nM | 9.69 nM | 67% |
| B2 | < 0.17 nM | < 0.13 nM | < 0.15 nM | < 0.14 nM | 0.45 nM | 68% |
| B3 | < 0.17 nM | < 0.14 nM | < 0.15 nM | < 0.14 nM | 0.68 nM | 60% |
| B4 | 0.37 nM | 0.35 nM | 0.32 nM | 0.34 nM | 0.3 nM | 60% |
| B5 | 0.21 nM | 0.2 nM | 0.24 nM | 0.25 nM | 0.15 nM | 63% |
| B6 | < 0.24 nM | < 0.21 nM | 0.27 nM | 0.41 nM | 2.78 nM | 67% |
| B7 | < 0.26 nM | < 0.22 nM | 0.33 nM | 0.38 nM | 3.38 nM | 71% |
| B8 | < 0.25 nM | < 0.21 nM | < 0.26 nM | < 0.25 nM |  | 73% |
